This is an account of results in patent US20130263331A1.

The target of assay [1] is putative receptor(s) on brush border membrane vesicles (BBMV) prepared from midguts of third instars of the western corn rootworm (Diabrotica virgifera virgifera LeConte) (Diabrotica virgifera virgifera).
For assay [2] the target is unchanged. Nature of the assay: Homologous competition: unlabeled Cry3Aa (0-2500 nM) against 5 nM 125I-Cry3Aa on 0.1 mg/ml BBMV; value at about 2500 nM competitor.

Broadly, the Kd is the equilibrium constant for the complex coming apart.

In assay [1], “Cry3Aa trypsin core (from UniProt P0A379 159-644)” showed a Kd of 24 nM and a binding site concentration Bmax (pmole/mg BBMV) of 22. The substance also gave a percent of bound 125I-Cry3Aa displaced in assay [2] of 60%.
On to “Full-length Cry6Aa1 (from UniProt Q45757 1-475)”, for which, in assay [1], the Kd worked out at 10.1 nM and the binding site concentration Bmax (pmole/mg BBMV) was 0.66.
